Source: publication PMC4689385

Target: KillerOrange
Test: crystal structure; KillerOrange; hanging drop vapor diffusion at 20°C; ~22 mg/ml protein in 20 mM Tris pH 8.0, 200 mM NaCl; reservoir 0.02M Na acetate pH 5.0, 1% gamma-PGA, 3% PEG 4K; data at 100 K

KillerOrange
stoichiometry N: 2
